Source: PMC11327461, “Exogenous serpin B1 restricts immune complex-mediated NET formation via inhibition of a chymotrypsin-like protease and enhances microbial phagocytosis” (The Journal of Biological Chemistry, 2024)

T1: recombinant human serpin B1, wild type (C344) (human, UniProt P30740 1-379)
T1 construct: serpin B1, human, recombinant, wild type (C344); non-glycosylated, 42 kDa by the discussion; also called rhsB1; sB1; source: yeast S. cerevisiae, purified
T1 sequence (looked up): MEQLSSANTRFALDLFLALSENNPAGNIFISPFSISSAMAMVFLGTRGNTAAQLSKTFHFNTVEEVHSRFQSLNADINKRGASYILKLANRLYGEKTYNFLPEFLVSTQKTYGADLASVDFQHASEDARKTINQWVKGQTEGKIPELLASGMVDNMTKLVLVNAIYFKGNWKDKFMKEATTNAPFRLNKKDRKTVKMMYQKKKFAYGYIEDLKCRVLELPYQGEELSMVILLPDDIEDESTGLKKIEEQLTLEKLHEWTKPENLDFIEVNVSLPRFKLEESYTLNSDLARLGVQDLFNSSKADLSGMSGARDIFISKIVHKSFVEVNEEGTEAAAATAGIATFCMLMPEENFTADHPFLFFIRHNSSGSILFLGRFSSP


Target: T1, recombinant human serpin B1, wild type …
Test: formation of SDS- and heat-stable serpin-protease complexes, SDS-PAGE; 2 uL of hNE, hPR3 or hCG (23.4 uM each) mixed with each sB1 protein at 1:1 molar ratio in 20 uL PBS, pH 7.4, 15 min; stopped with protease inhibitor mix; reducing sample buffer, heated, SDS-PAGE
Conditions: both partners purified

| binding result | Binder |
| --- | --- |
| binds | cathepsin G (enzyme, human, UniProt P08311 21-244, looked up, cathepsin G (hCG), neutrophil serine protease; also called hCG; Cat G; source: bought: Athens Research and Technology) IIGGRESRPHSRPYMAYLQIQSPAGQSRCGGFLVREDFVLTAAHCWGSNINVTLGAHNIQRRENTQQHITARRAIRHPQYNQRTIQNDIMLLQLSRRVRRNRNVNPVALPRAQEGLRPGTLCTVAGWGRVSMRRGTDTLREVQLRVQRDRQCLRIFGSYDPRRQICVGDRRERKAAFKGDSGGPLLCNNVAHGIVSYGKSSGVPPEVFTRVSSFLPWIRTTMRS |
| binds | proteinase 3 (enzyme, human, UniProt P24158 28-248, looked up, hPR3, neutrophil serine protease; also called hPR3; PR3; source: bought: Athens Research and Technology) IVGGHEAQPHSRPYMASLQMRGNPGSHFCGGTLIHPSFVLTAAHCLRDIPQRLVNVVLGAHNVRTQEPTQQHFSVAQVFLNNYDAENKLNDVLLIQLSSPANLSASVATVQLPQQDQPVPHGTQCLAMGWGRVGAHDPPAQVLQELNVTVVTFFCRPHNICTFVPRRKAGICFGDSGGPLICDGIIQGIDSFVIWGCATRLFPDFFTRVALYVDWIRSTLR |
